The target in this assay is eYFP-MotD (P. aeruginosa). The assay is described as follows: FRET or BRET. (In general: Bioluminescence resonance energy transfer reports proximity on the nanometre scale.)

For “eCFP-MotY (from UniProt A0A0H2ZD91 1-321) (natural protein)”, the FRET efficiency (E) came to 1.54%.

These data come from article PMC11546298.
